US20220096653A1, “CONJUGATE COMPRISING LIGAND AND CEACAM5 ANTIBODY FAB FRAGMENT” (ASTELLAS PHARMA INC., priority 2019, published 2022)

T1: CEACAM5 (R&D Systems, 4128-CM-050) (human, UniProt P06731 35-685)
T1 construct: Immobilised on the ELISA plate; also called human CEACAM5
T1 sequence (looked up): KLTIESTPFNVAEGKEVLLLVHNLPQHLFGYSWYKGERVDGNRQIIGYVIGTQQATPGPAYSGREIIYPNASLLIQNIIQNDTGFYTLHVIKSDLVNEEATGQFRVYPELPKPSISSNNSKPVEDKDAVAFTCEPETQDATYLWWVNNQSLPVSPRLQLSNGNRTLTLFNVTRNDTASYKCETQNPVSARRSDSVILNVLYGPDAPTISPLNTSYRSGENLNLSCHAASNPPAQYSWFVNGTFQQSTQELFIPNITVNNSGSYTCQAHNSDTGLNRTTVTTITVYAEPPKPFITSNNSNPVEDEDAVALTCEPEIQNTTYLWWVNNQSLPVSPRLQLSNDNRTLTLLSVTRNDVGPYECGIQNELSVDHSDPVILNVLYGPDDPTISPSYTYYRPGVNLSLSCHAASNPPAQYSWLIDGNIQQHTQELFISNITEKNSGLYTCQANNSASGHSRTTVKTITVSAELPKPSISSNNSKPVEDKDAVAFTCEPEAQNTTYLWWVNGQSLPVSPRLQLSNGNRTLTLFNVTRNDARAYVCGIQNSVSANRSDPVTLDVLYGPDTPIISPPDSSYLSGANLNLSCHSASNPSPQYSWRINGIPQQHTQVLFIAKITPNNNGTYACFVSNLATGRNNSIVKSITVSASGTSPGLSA


molecular target: T1, CEACAM5 (R&D Systems, 4128-CM-050); assay: ELISA on immobilised CEACAM5, 4-parameter fit, duplicate
Procedure: Each anti-human CEACAM5 antibody Fab fragment conjugate prepared in Example 2 was subjected to ELISA to evaluate the binding activity thereof to CEACAM5. In the present test, a phosphate buffer (Nacalai Tesque Inc., 0.1 mol/L-Phosphate Buffer Solution (pH 7.2)) prepared to 10 mM by diluting 10-fold with distilled water was used as a solvent for an antigen immobilization liquid, and 20×PBS/Tween 20 Buffer (Thermo Fisher Scientific Inc., 28352) diluted 20-fold with distilled water was used as a wash liquid. In addition, for bovine serum albumin (BSA) used in the present test, 30% Bovine Serum Albumin solution (Sigma-Aldrich, Inc., A9576-50ML) was added in an appropriate proportion for use. CEACAM5 (R&D Systems, 4128-CM-050) was diluted with a 10 mM phosphate buffer (pH 7.2) to 0.1 μg/mL, and added to a Nunc MaxiSorp White 384 plate (Nunc, 4603272) at 30 μL per well, and the plate was incubated overnight at 4° C. for immobilization. The CEACAM5 immobilization liquid was removed by reverse centrifugation, and then blocking was carried out by adding a PBS/Tween 20 buffer containing 5.0% BSA. Thereafter, the blocking solution was removed by reverse centrifugation, a solution of each CEACAM5 antibody Fab² fragment conjugate described above or a Fab² fragment having no labeling portion (PB009-01) as a control at about 10000 ng/mL was diluted in 14 steps by 3-fold dilution using a PBS/Tween 20 buffer containing 1.0% BSA, and 30 μL was added per well and incubated at room temperature for 60 minutes. The plate was washed 3 times with a PBS/Tween 20 buffer, and Horseradish Peroxidase (HRP)-labeled goat anti-human IgG (H+L chain) antibody (MBL Life Sciences, 206) diluted 1000-fold using a PBS/Tween 20 buffer containing 5.0% BSA was added at 30 μL per well and incubated at room temperature for 30 minutes. The plate was washed 3 times with a PBS/Tween 20 buffer, and ECL Prime Western Blotting DETECTION Reagent (GE Healthcare, RPN2232) as a substrate was added at 30 μL per well. The substrate was incubated at room temperature for 15 minutes, and then a signal value thereof was measured using an Envision counter (PerkinElmer, Inc.).
The test for each antibody was carried out in duplicate, and an EC₅₀ value was calculated using a 4-parameter logistic curve model.

Row | Binder | EC50 [nM]
1 | (Y-S1-X)p-Fab^2 with Y Gd/DOTA, S1 - (bond), X -Gly-Tyr-NH-(CH2)5-Z1(#S)- (Fab, V domains shown, labeling may sit on this chain; sites not stated; labeling portion (MW 1045) on amino groups of the Fab, sites and chain not stated; 1-3 per Fab by MS, also called Ex-No 37; conjugate 37) VH: EVQLVESGGGLVQPGGSLRLSCAASGFNIRDTYMHWVRQAPGKGLEWVARIDPANGNSRYVPKFQGRFTISADTSRNTAYLQMNSLRAEDTAVYYCAPFGYYVSDYAMAYWGQGTLVTVSS VL: DIQLTQSPSSLSASVGDRVTITCRAGESVDIFGVGFLHWYQQKPGKAPKLLIYRASNLESGIPSRFSGSGSRTDFTLTISSLQPEDFATYYCQQTNEDPYTFGQGTKVEIKR | 0.23
2 | (Y-S1-X)p-Fab^2 with Y Gd/DOTA, S1 -NH-CH2-(1,4-Ph)-C(═O)-, X -Met-Gly-Lys*-Z2(#S)- (Fab, V domains shown, labeling may sit on this chain; sites not stated; labeling portion (MW 1190) on amino groups of the Fab, sites and chain not stated; 1-3 per Fab by MS, also called Ex-No 38; conjugate 38) VH: EVQLVESGGGLVQPGGSLRLSCAASGFNIRDTYMHWVRQAPGKGLEWVARIDPANGNSRYVPKFQGRFTISADTSRNTAYLQMNSLRAEDTAVYYCAPFGYYVSDYAMAYWGQGTLVTVSS VL: DIQLTQSPSSLSASVGDRVTITCRAGESVDIFGVGFLHWYQQKPGKAPKLLIYRASNLESGIPSRFSGSGSRTDFTLTISSLQPEDFATYYCQQTNEDPYTFGQGTKVEIKR | 0.18
3 | (Y-S1-X)p-Fab^2 with Y Gd/DOTA, S1 -NH-(CH2CH2O)3-CH2-C(═O)-NH-CH2-(1,3-Ph)-C(═O)-, X -Gly-Tyr*-CH-C(═O)-NH-(CH2)2-Z1(#S) (Fab, V domains shown, labeling may sit on this chain; sites not stated; labeling portion (MW 1384) on amino groups of the Fab, sites and chain not stated; 1-3 per Fab by MS, also called Ex-No 39; conjugate 39) VH: EVQLVESGGGLVQPGGSLRLSCAASGFNIRDTYMHWVRQAPGKGLEWVARIDPANGNSRYVPKFQGRFTISADTSRNTAYLQMNSLRAEDTAVYYCAPFGYYVSDYAMAYWGQGTLVTVSS VL: DIQLTQSPSSLSASVGDRVTITCRAGESVDIFGVGFLHWYQQKPGKAPKLLIYRASNLESGIPSRFSGSGSRTDFTLTISSLQPEDFATYYCQQTNEDPYTFGQGTKVEIKR | 0.2
4 | [Gd/4arm-DOTA-CH2-(1,4-Ph)-NH-C(═S)-NH-CH2-(1,3-Ph)-C(═O)-Met-Gly-Lys*-Z2(#S)]p-Fab^2 (Fab, V domains shown, labeling may sit on this chain; sites not stated; labeling portion (MW 1355) bound via 2-iminothiolane-treated amino groups of the Fab, sites and chain not stated; 1-2 per Fab by MS, also called Ex-No 40; Conjugate No. 40) VH: EVQLVESGGGLVQPGGSLRLSCAASGFNIRDTYMHWVRQAPGKGLEWVARIDPANGNSRYVPKFQGRFTISADTSRNTAYLQMNSLRAEDTAVYYCAPFGYYVSDYAMAYWGQGTLVTVSS VL: DIQLTQSPSSLSASVGDRVTITCRAGESVDIFGVGFLHWYQQKPGKAPKLLIYRASNLESGIPSRFSGSGSRTDFTLTISSLQPEDFATYYCQQTNEDPYTFGQGTKVEIKR | 0.22
5 | (Y-S1-X)p-Fab^2 with Y Gd/DOTA, S1 -NH-(CH2CH2O)3-CH2-C(═O)-, X -Met-Gly-Lys*-Z2(#N)- (Fab, V domains shown, labeling may sit on this chain; sites not stated; labeling portion (MW 1145) on amino groups of the Fab, sites and chain not stated; 1-4 per Fab by MS, also called Ex-No 41; conjugate 41) VH: EVQLVESGGGLVQPGGSLRLSCAASGFNIRDTYMHWVRQAPGKGLEWVARIDPANGNSRYVPKFQGRFTISADTSRNTAYLQMNSLRAEDTAVYYCAPFGYYVSDYAMAYWGQGTLVTVSS VL: DIQLTQSPSSLSASVGDRVTITCRAGESVDIFGVGFLHWYQQKPGKAPKLLIYRASNLESGIPSRFSGSGSRTDFTLTISSLQPEDFATYYCQQTNEDPYTFGQGTKVEIKR | 0.21
6 | (Y-S1-X)p-Fab^2 with Y Gd/DOTA, S1 spacer (m), X -Met-Gly-Lys*-Z2(#N)- (Fab, V domains shown, labeling may sit on this chain; sites not stated; labeling portion (MW 1107) on amino groups of the Fab, sites and chain not stated; 1 per Fab by MS, also called Ex-No 42; conjugate 42) VH: EVQLVESGGGLVQPGGSLRLSCAASGFNIRDTYMHWVRQAPGKGLEWVARIDPANGNSRYVPKFQGRFTISADTSRNTAYLQMNSLRAEDTAVYYCAPFGYYVSDYAMAYWGQGTLVTVSS VL: DIQLTQSPSSLSASVGDRVTITCRAGESVDIFGVGFLHWYQQKPGKAPKLLIYRASNLESGIPSRFSGSGSRTDFTLTISSLQPEDFATYYCQQTNEDPYTFGQGTKVEIKR | 0.21
7 | (Y-S1-X)p-Fab^2 with Y Gd/DOTA, S1 spacer (h), X -Met-Gly-Lys*-Z2(#N)- (Fab, V domains shown, labeling may sit on this chain; sites not stated; labeling portion (MW 1090) on amino groups of the Fab, sites and chain not stated; 1-2 per Fab by MS, also called Ex-No 43; conjugate 43) VH: EVQLVESGGGLVQPGGSLRLSCAASGFNIRDTYMHWVRQAPGKGLEWVARIDPANGNSRYVPKFQGRFTISADTSRNTAYLQMNSLRAEDTAVYYCAPFGYYVSDYAMAYWGQGTLVTVSS VL: DIQLTQSPSSLSASVGDRVTITCRAGESVDIFGVGFLHWYQQKPGKAPKLLIYRASNLESGIPSRFSGSGSRTDFTLTISSLQPEDFATYYCQQTNEDPYTFGQGTKVEIKR | 0.23
8 | (Y-S1-X)p-Fab^2 with Y Gd/DOTA, S1 -NH-(CH2CH2O)3-CH-C(═O)-NH-CH2-(1,3-Ph)-C(═O)-, X -Gly-Lys*-C(═S)-NH-(1,4-Ph)-NH-C(═S)- (Fab, V domains shown, labeling may sit on this chain; sites not stated; labeling portion (MW 1259) on amino groups of the Fab, sites and chain not stated; 1-3 per Fab by MS, also called Ex-No 44; conjugate 44) VH: EVQLVESGGGLVQPGGSLRLSCAASGFNIRDTYMHWVRQAPGKGLEWVARIDPANGNSRYVPKFQGRFTISADTSRNTAYLQMNSLRAEDTAVYYCAPFGYYVSDYAMAYWGQGTLVTVSS VL: DIQLTQSPSSLSASVGDRVTITCRAGESVDIFGVGFLHWYQQKPGKAPKLLIYRASNLESGIPSRFSGSGSRTDFTLTISSLQPEDFATYYCQQTNEDPYTFGQGTKVEIKR | 0.29
